Residue numbers refer to the chain shown, from its start. Names and notes keep the numbering of the source.
Key:
Kap104p [1] = molecular target: Kap104p (UniProt P38217); experiment: ITC
Kap104p [2] = molecular target: T1, Kap104p (yeast (S. cerevisiae), UniProt P38217 1-918); experiment: pull-down; ~30 μg Kap104p added to ~10 μg GST protein immobilized on 20 μl glutathione sepharose; washes with TB buffer (20 mM HEPES pH 7.3, 110 mM KAc, 2 mM MgAc, 1 mM EGTA, 2 mM DTT, 20% glycerol); second incubation with buffer or RanGTP (5-fold molar excess); SDS-PAGE, Coomassie; conditions: both partners purified
T1 construct: Kap104p, yeast homolog of Kapβ2; gene a gift from J. Aitchison, subcloned into pGEX-Tev; also called yeast Karyopherin β2 homolog; source: E. coli Rosetta(DE3)pLysS, purified (glutathione sepharose, TEV cleavage, anion exchange, gel filtration)
T1 sequence (looked up): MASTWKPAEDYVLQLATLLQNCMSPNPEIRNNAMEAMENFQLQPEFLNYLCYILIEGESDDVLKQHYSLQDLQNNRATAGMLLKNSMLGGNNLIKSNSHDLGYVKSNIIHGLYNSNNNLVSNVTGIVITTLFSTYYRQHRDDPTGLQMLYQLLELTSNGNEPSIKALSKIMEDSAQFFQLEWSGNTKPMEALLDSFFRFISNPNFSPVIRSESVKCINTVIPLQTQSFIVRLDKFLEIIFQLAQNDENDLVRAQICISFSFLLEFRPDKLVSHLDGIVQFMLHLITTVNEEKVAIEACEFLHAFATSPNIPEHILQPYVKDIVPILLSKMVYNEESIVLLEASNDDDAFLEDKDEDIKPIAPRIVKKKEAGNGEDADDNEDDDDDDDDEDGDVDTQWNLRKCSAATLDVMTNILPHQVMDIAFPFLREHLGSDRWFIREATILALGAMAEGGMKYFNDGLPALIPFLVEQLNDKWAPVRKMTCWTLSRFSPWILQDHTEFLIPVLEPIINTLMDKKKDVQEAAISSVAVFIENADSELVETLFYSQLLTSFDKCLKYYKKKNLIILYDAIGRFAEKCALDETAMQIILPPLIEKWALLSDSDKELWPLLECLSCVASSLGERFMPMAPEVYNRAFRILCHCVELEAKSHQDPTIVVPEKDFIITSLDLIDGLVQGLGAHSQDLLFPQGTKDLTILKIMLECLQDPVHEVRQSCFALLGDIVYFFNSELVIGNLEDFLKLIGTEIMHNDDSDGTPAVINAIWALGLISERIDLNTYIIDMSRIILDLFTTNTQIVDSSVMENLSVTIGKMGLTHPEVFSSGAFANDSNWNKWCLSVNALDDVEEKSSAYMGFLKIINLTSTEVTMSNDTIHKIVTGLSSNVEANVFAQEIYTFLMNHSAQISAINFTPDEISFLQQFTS

Kap104p [3] = molecular target: T1, Kap104p; experiment: ITC; 90–350 μM MBP-NLS titrated into 9–35 μM Kap104p in the cell; 20 °C; 20 mM Tris pH 7.5, 100 mM NaCl, 2 mM β-mercaptoethanol, 10% glycerol; 35 injections of 8 μl; single-site model; conditions: both partners purified
Kap104p, P38217 [4] = molecular target: T2, Kap104p, P38217; experiment: ITC; conditions: for ddG / ratio to parent: chain shown with the change; for other: TΔS / Kd / other: ΔH / dG: chain shown with the change;; for other: TΔS: parent: 0.09 ± 0.7; for Kd: parent: 32 ± 16; for other: ΔH: parent: -10.0 ± 0.5; for dG: parent: -10.1 ± 0.3
T2 chain: T1 sequence (looked up)

Kap104p, P38217 [5] = molecular target: T2, Kap104p, P38217; experiment: ITC; set-up: other: TΔS: unit not given here; conditions: for Kd / other: TΔS / dG / other: ΔH: chain shown with the change;; for Kd: parent: 37 ± 20; for ddG / ratio to parent: chain shown with the change; for other: TΔS: parent: -1.3 ± 0.6; for dG: parent: -10.0 ± 0.3; for other: ΔH: parent: -11.3 ± 0.5
Kap104p [6] = molecular target: T3, Kap104p (yeast (S. cerevisiae), UniProt P38217 1-918); experiment: ITC
T3 chain: T1 sequence (looked up)

## MBP–Hrp1p NLS (from UniProt Q99383) R512A; 524RR525/AA
Kap104p [1]
  ddG: 0.1 kcal/mol
  ratio to parent: 1.4
Kap104p [1]; parent: 0.09 ± 0.7
  other: TΔS: 0.06 kcal/mol
Kap104p [1]; parent: -10.0 ± 0.5
  other: ΔH: -9.9 kcal/mol
Kap104p [1]; parent: -10.1 ± 0.3
  dG: -9.9 kcal/mol

B1: GST–Hrp1p, full-length (natural protein, S. cerevisiae, UniProt Q99383 1-534, looked up)
chain: MSSDEEDFNDIYGDDKPTTTEEVKKEEEQNKAGSGTSQLDQLAALQALSSSLNKLNNPNSNNSSSNNSNQDTSSSKQDGTANDKEGSNEDTKNEKKQESATSANANANASSAGPSGLPWEQLQQTMSQFQQPSSQSPPQQQVTQTKEERSKADLSKESCKMFIGGLNWDTTEDNLREYFGKYGTVTDLKIMKDPATGRSRGFGFLSFEKPSSVDEVVKTQHILDGKVIDPKRAIPRDEQDKTGKIFVGGIGPDVRPKEFEEFFSQWGTIIDAQLMLDKDTGQSRGFGFVTYDSADAVDRVCQNKFIDFKDRKIEIKRAEPRHMQQKSSNNGGNNGGNNMNRRGGNFGNQGDFNQMYQNPMMGGYNPMMNPQAMTDYYQKMQEYYQQMQKQTGMDYTQMYQQQMQQMAMMMPGFAMPPNAMTLNQPQQDSNATQGSPAPSDSDNNKSNDVQTIGNTSNTDSGSPPLNLPNGPKGPSQYNDDHNSGYGYNRDRGDRDRNDRDRDYNHRSGGNHRRNGRGGRGGYNRRNNGYHPYNR
notes: Hrp1p, S. cerevisiae; also called full-length Hrp1p; source: E. coli BL21(DE3), immobilized on glutathione sepharose
Kap104p [2]
  binding result: binds

B2: GST–Nab2p, full-length (natural protein, S. cerevisiae, UniProt P32505 1-525, looked up)
chain: MSQEQYTENLKVIVAEKLAGIPNFNEDIKYVAEYIVLLIVNGGTVESVVDELASLFDSVSRDTLANVVQTAFFALEALQQGESAENIVSKIRMMNAQSLGQSDIAQQQQQQQQQQQPDIAQQQPQQQPQQQPQQQPQQQPQQQPQQQPQQQPQQQPQLQPLQPQLGTQNAMQTDAPATPSPISAFSGVVNAAAPPQFAPVDNSQRFTQRGGGAVGKNRRGGRGGNRGGRNNNSTRFNPLAKALGMAGESNMNFTPTKKEGRCRLFPHCPLGRSCPHAHPTKVCNEYPNCPKPPGTCEFLHPNEDEELMKEMERTREEFQKRKADLLAAKRKPVQTGIVLCKFGALCSNPSCPFGHPTPANEDAKVIDLMWCDKNLTCDNPECRKAHSSLSKIKEVKPISQKKAAPPPVEKSLEQCKFGTHCTNKRCKYRHARSHIMCREGANCTRIDCLFGHPINEDCRFGVNCKNIYCLFRHPPGRVLPEKKGAAPNSNVPTNERPFALPENAIIENAPPQTSFTHQEQDTEMN
notes: Nab2p, S. cerevisiae; also called full-length Nab2p; source: E. coli BL21(DE3), immobilized on glutathione sepharose
Kap104p [2]
  binding result: binds

B3: GST–Tfg2p, full-length (natural protein, S. cerevisiae, UniProt P41896 1-400, looked up)
chain: MSSGSAGAPALSNNSTNSVAKEKSGNISGDEYLSQEEEVFDGNDIENNETKVYEESLDLDLERSNRQVWLVRLPMFLAEKWRDRNNLHGQELGKIRINKDGSKITLLLNENDNDSIPHEYDLELTKKVVENEYVFTEQNLKKYQQRKKELEADPEKQRQAYLKKQEREEELKKKQQQQKRRNNRKKFNHRVMTDRDGRDRYIPYVKTIPKKTAIVGTVCHECQVMPSMNDPNYHKIVEQRRNIVKLNNKERITTLDETVGVTMSHTGMSMRSDNSNFLKVGREKAKSNIKSIRMPKKEILDYLFKLFDEYDYWSLKGLKERTRQPEAHLKECLDKVATLVKKGPYAFKYTLRPEYKKLKEEERKATLGELADEQTGSAGDNAQGDAEADLEDEIEMEDVV
notes: Tfg2p, S. cerevisiae; source: E. coli BL21(DE3), immobilized on glutathione sepharose
Kap104p [2]
  binding result: binds

B4: MBP–Hrp1p NLS 519RGGYN523/AAAAA (domain or fragment, S. cerevisiae, UniProt Q99383 494-534, looked up)
chain: RDRNDRDRDYNHRSGGNHRRNGRGGAAAAARRNNGYHPYNR
notes: Hrp1p NLS, residues 494-534; source: E. coli BL21(DE3), purified (amylose resin, cation exchange)
Kap104p [3]
  binding result: binds
Kap104p, P38217 [4]
  ddG: -0.4 kcal/mol
  ratio to parent: 0.5
  other: TΔS: -3.8 kcal/mol/K
  Kd: 17 nM
  other: ΔH: -14.2 kcal/mol
  dG: -10.4 kcal/mol

B5: MBP–Nab2p NLS 216KNRR219/AAAA (domain or fragment, S. cerevisiae, UniProt P32505 201-251, looked up)
chain: DNSQRFTQRGGGAVGAAAAGGRGGNRGGRNNNSTRFNPLAKALGMAGESNM
notes: Nab2p NLS, residues 201-251; source: E. coli BL21(DE3), purified (amylose resin, cation exchange)
Kap104p, P38217 [5]
  Kd: 109 nM
Kap104p [3]
  fold decrease in affinity against wild type: 3 fold

B6: MBP–Nab2p NLS 226RGGRN230 to alanines (domain or fragment, S. cerevisiae, UniProt P32505 201-251, looked up)
chain: DNSQRFTQRGGGAVGKNRRGGRGGNAAAAANNSTRFNPLAKALGMAGESNM
notes: as for B5
Kap104p, P38217 [5]
  ddG: 0.3 kcal/mol
  ratio to parent: 1.6
  Kd: 59 nM
  other: TΔS: -0.2
  dG: -9.7 kcal/mol
  other: ΔH: -9.9 kcal/mol
Kap104p [3]
  binding result: binds

B7: MBP–Nab2p NLS 222RGG224 to alanines (domain or fragment, S. cerevisiae, UniProt P32505 201-251, looked up)
chain: DNSQRFTQRGGGAVGKNRRGGAAANRGGRNNNSTRFNPLAKALGMAGESNM
notes: as for B5
Kap104p, P38217 [5]
  ddG: 0.3 kcal/mol
  ratio to parent: 1.6
  Kd: 58 nM
  other: TΔS: 0.06
  dG: -9.7 kcal/mol
  other: ΔH: -9.6 kcal/mol
Kap104p [3]
  binding result: binds

B8: MBP–Hrp1p NLS 512RRNG515/AAAA (domain or fragment, S. cerevisiae, UniProt Q99383 494-534, looked up)
chain: RDRNDRDRDYNHRSGGNHAAAARGGRGGYNRRNNGYHPYNR
notes: as for B4
Kap104p [3]
  binding result: binds
Kap104p, P38217 [4]
  ddG: 0.2 kcal/mol
  ratio to parent: 1.5
  other: TΔS: 1.5 kcal/mol/K
  Kd: 48 nM
  other: ΔH: -8.3 kcal/mol
  dG: -9.8 kcal/mol

## RDRNDRDRDYNHRSGGNHARNGRGGRGGYNRRNNGAHPYNR [MBP–Hrp1p NLS R512A, Y529A]
Kap104p [6]
  Kd: 60 nM

## RDRNDRDRDYNHRSGGNHRRNGRGGRGGYNARNNGYHPYNR [MBP–Hrp1p NLS R524A]
Kap104p [6]
  Kd: 37 nM

## RDRNDRDRDYNHRSGGNHRRNGRGGRGGYNRANNGYHPYNR [MBP–Hrp1p NLS R525A]
Kap104p [6]
  Kd: 13 nM

## RDRNDRDRDYNHRSGGNHARNGRGGRGGYNAANNGYHPYNR [MBP–Hrp1p NLS R512A, 524RR525/AA]
Kap104p [6]
  Kd: 44 nM

B9: MBP–Hrp1p NLS R512,R513,R516,R519/AAAA (domain or fragment, S. cerevisiae, UniProt Q99383 494-534, looked up)
chain: B8 chain with A21N, A22G, R23A, R26A
notes: Hrp1p NLS, residues 494-534; also called quadruple mutant (arginines to alanines); source: E. coli BL21(DE3), purified (amylose resin, cation exchange)
Kap104p [6]
  Kd: 194 nM
Kap104p [3]
  fold decrease in binding against wild type: 5 fold

B10: MBP–Hrp1p NLS 516RGG518/AAA (domain or fragment, S. cerevisiae, UniProt Q99383 494-534, looked up)
chain: RDRNDRDRDYNHRSGGNHRRNGAAARGGYNRRNNGYHPYNR
notes: as for B4
Kap104p [3]
  binding result: binds
Kap104p, P38217 [4]
  ddG: -0.3 kcal/mol
  ratio to parent: 0.7
  other: TΔS: 2 kcal/mol/K
  Kd: 24 nM
  other: ΔH: -8.3 kcal/mol
  dG: -10.3 kcal/mol

B11: MBP–Hrp1p NLS 524RR525/AA (domain or fragment, S. cerevisiae, UniProt Q99383 494-534, looked up)
chain: B10 chain with A23R, A24G, A25G, R31A, R32A
notes: as for B4
Kap104p [3]
  KD,mutant/KD,wild type: 1.7
Kap104p, P38217 [4]
  Kd: 62 nM

B12: MBP–Hrp1p NLS Y529A (domain or fragment, S. cerevisiae, UniProt Q99383 494-534, looked up)
chain: B10 chain with A23R, A24G, A25G, Y36A
notes: as for B4
Kap104p [6]
  Kd: 143 nM
Kap104p [3]
  KD,mutant/KD,wild type: 4

B13: MBP–Hrp1p NLS R512, R513, R516, R519/KKKK (domain or fragment, S. cerevisiae, UniProt Q99383 494-534, looked up)
chain: RDRNDRDRDYNHRSGGNHKKNGKGGKGGYNRRNNGYHPYNR
notes: Hrp1p NLS, residues 494-534; also called quadruple mutant (arginines to lysines); source: E. coli BL21(DE3), purified (amylose resin, cation exchange)
Kap104p [6]
  Kd: 36 nM
Kap104p [3]
  binding result: binds

B14: MBP–Hrp1p NLS Y529L (domain or fragment, S. cerevisiae, UniProt Q99383 494-534, looked up)
chain: B10 chain with A23R, A24G, A25G, Y36L
notes: as for B4
Kap104p [6]
  Kd: 37 nM
Kap104p [3]
  binding result: binds

From PMC2408616, “Modular Organization and Combinatorial Energetics of Proline–Tyrosine Nuclear Localization Signals” (PLoS Biology, 2008)
